The text below walks through data of publication PMC5701133.

The target in this series is JMJD6 full-length;BRD4 ET domain (human?;human, UniProt Q6NYC1;O60885 1-403;601-683, |). Briefly: thermal shift (DSF); with BRD4 ET; Tm […] C (+[…] C vs JMJD6/ssRNA); DSF: PBS pH 7.4, 1 uM JMJD6, 1 uM oligonucleotide, ET 1-100 uM, SYPRO Orange, 25-95 C at 1 C/min.

Take AUACGAUGCUUUACGGUGCUAUUUUGU (ssRNA) [ssRNA 27-nt]: the binding result is “binds”.
